Reference: patent US20100168033A1, “UNACYLATED GHRELIN AS THERAPEUTIC AGENT IN THE TREATMENT OF METABOLIC DISORDERS” (ALIZE PHARMA SAS, priority 2007, published 2010)
No end group written: not given here.

Experiments:
[1] = biological target: UAG receptor on INS-1E pancreatic β cells (rat); assay: competition with [125I-Tyr4]-UAG on INS-1E β-cell membranes, mean±SEM of three experiments
[2] = biological target: UAG receptor on HIT-T15 pancreatic β cells (hamster); assay: competition with [125I-Tyr4]-UAG on HIT-T15 β-cell membranes, mean±SEM of three experiments

Binder | IC50 [1] | IC50 [2]
GSSFLSPEHQRVQQRKESKKPPAKLQPR [unacylated ghrelin UAG (1-28)] | 2 nM | 2.6 nM
SPEHQRVQ (not fully specified) [UAG (6-13)] | 2.4 nM | 3.8 nM
